T1: MeABL5 (Manihot esculenta Crantz, UniProt A0A411G151)
T1 sequence: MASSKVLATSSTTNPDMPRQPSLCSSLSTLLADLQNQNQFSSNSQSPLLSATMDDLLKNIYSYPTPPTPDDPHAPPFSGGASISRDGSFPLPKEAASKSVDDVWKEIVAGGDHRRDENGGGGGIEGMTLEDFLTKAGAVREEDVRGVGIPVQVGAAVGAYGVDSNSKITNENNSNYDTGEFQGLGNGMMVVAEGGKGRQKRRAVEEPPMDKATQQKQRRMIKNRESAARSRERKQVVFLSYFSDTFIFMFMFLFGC

B1: pMeCWINV3-MT 54 bp (CACGTG deleted) (dsDNA)
DNA 1: ATCGTTGACATGTGAGTATTTGACGTATCGGAAAGGGAAGAAAAACAACATTGA
DNA 2: TCAATGTTGTTTTTCTTCCCTTTCCGATACGTCAAATACTCACATGTCAACGAT
B2: pMeCWINV3-WT 60 bp (dsDNA)
DNA 1: ATCGTTGACATGTGAGTATTTGACGTATCCACGTGGGAAAGGGAAGAAAAACAACATTGA
DNA 2: TCAATGTTGTTTTTCTTCCCTTTCCCACGTGGATACGTCAAATACTCACATGTCAACGAT

Molecular target: T1, MeABL5
Assay: EMSA; 250 ng protein, 500 ng DNA; EMSA kit (Invitrogen), room temperature 30 min, 500 ng DNA, 0-250 ng protein, PAGE with SYBR Green/SYPRO Ruby stain; buffer, salt and pH not stated
Conditions: protein: recombinant; tags: MBP (pET28a-MBP) removed by TEV protease; Ni column purified; chain copies: 2; label: none (SYBR Green stain); annealed duplex

| Binder | binding result |
| --- | --- |
| B1 | no binding |
| B2 | binds |

— paper PMC6609874, “MeABL5, an ABA Insensitive 5-Like Basic Leucine Zipper Transcription Factor, Positively Regulates MeCWINV3 in Cassava (Manihot esculenta Crantz)”
